Test results reported in patent US20220195071A1 (TORQUE THERAPEUTICS, published 2022).

Target: T1, mouse CD8 (mouse, UniProt P01731 28-247; P10300 22-213)
T1 construct: whole, on cells
Test: flow cytometry of blood 1 hr after i.v. injection (2 µg/mouse); kappa+ IL-15+ cells

T1 sequence (P01731 28-247, chain 1 of 2): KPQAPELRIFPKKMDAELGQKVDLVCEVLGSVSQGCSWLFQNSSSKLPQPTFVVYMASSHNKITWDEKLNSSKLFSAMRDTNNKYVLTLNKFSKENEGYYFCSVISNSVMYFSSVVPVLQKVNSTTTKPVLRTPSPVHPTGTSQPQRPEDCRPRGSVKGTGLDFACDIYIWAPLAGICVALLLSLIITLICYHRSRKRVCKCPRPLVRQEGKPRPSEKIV
T1 sequence (P10300 22-213, chain 2 of 2): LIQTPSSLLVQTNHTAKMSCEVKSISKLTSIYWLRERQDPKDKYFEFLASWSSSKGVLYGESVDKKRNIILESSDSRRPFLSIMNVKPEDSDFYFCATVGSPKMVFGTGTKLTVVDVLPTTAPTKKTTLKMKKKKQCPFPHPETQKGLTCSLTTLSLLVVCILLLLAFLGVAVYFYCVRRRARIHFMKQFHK

- fold higher concentration of circulating tethered-fusion positive cells against vehicle control and chM1Fab-IL15/sushi: > 10 fold
B1: chY169Fab-M1scFv-IL15/sushi (bispecific antibody)
chain 1: EVKLQESGGGLVQPGRSLKLSCAASGFNFNDYWMGWVRQAPGKGLEWIGEINKDSSTINYTPSLKDKFTISRDNAQNTLYLQMSKLGSEDTAIYYCARARGMMVLIIPHYFDYWGQGVMVTVSSASTKGPSVFPLAPSSKSTSGGTAALGCLVKDYFPEPVTVSWNSGALTSGVHTFPAVLQSSGLYSLSSVVTVPSSSLGTQTYICNVNHKPSNTKVDKKVEPKSCGGGGSGGGGSGGGGSQVNLLQSGAALVKPGASVKLSCKASGYTFTDYYIHWVKQSHGKSLEWVAYINPDRDYTNYNEKFKSKATLTVDKSTNTAYMELSRLTSEDSATFYCTRRLYDGAYYYSWFAYWGQGTLVTVSSGGGGSGGGGSGGGGSGGGGSDIQMTQSPHSLSASLGETVSIECLASEGISNYLAWYQQKPGKSPQLLIYYGSRLQDGVPSRFSGSGSGTQYSLRITNMQPEDEGVYYCQQGYKYPYTFGAGTKLELK
chain 2: not shown
chain 3: ITCPPPMSVEHADIWVKSYSLYSRERYICNSGFKRKAGTSSLTECVLNKATNVAHWTTPSLKCIR
